Test results from article PMC10532227.

How the values were obtained:
[1] = target: fluorescently labeled mononucleosomes assembled from octamers of recombinant human histones and DNA containing the 147 bp nucleosome positioning sequence 603 (human); assay: spFRET microscopy; as a2 but nucleosomes N(13, 91) (1 nM) preincubated 15 min with EGCG (0.8 µM) before PARP1 (20 nM), or PARP1 preincubated with EGCG; TB150 buffer, room temperature; then NAD+ (20 µM), 45 min
[2] = target: fluorescently labeled mononucleosomes assembled from octamers of recombinant human histones and DNA containing the 147 bp nucleosome positioning sequence 603 (human); assay: spFRET microscopy; nucleosomes N(13, 91) (1 nM; Cy3/Cy5 on nucleosomal DNA) with PARP1 (20 or 50 nM), 30 min at room temperature in TB150 buffer (20 mM Tris-HCl pH 7.9, 5 mM MgCl2, 150 mM KCl, 1 mM β-ME); then NAD+ (20 µM), 45 min; no EGCG
[3] = test system: PARP1; assay: spFRET microscopy; conditions: buffer, salt, pH and temperature of binding assays not given in the material (Methods 4.4-4.7 empty)

Substance	percent of detected particles in the EGCG–nucleosome–PARP1 complex at 20 nM PARP1 and 0.8 µM EGCG [1] [%]	percent of nucleosomes in the complex at 20 nM PARP1 [2] [%]	binding signal (% nucleosomes bound) ([3]; 20 nM PARP1, no EGCG)	binding signal (% nucleosomes bound) ([3]; 20 nM PARP1 added to nucleosomes preformed with 0.8 uM EGCG)
human poly(ADP-ribose) polymerase 1 fused with hexahistidine tag at the N-terminus (from UniProt P09874 1-1014) (enzyme)	67	65		
N(13, 91) nucleosome			65	67
